Patent US20180303952A1 (CYTOMX THERAPEUTICS, published 2018)
Changes are numbered by the printed parent chain. “And” between values parts separate entries of the source, which are not always exact repeats. Identical values can stand only once.

Columns and labels:
[1] = biological target: T1, human CD147 protein (adsorbed to ELISA plates) (human, UniProt P35613-2 22-205, limits assumed); assay: ELISA, human CD147 protein adsorbed to plate, intact activatable antibody; apparent KD
T1 construct: also called human CD147 polypeptide; Basigin
T1 sequence (looked up): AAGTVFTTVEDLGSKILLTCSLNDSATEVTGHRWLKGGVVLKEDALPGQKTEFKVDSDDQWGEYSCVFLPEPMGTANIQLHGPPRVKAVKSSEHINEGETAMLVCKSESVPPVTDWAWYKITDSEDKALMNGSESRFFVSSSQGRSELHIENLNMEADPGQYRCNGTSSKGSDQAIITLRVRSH
Description: Humanized anti-human CD147 antibodies of the present disclosure hu 3A11 Hc1/Lc1 (VL of SEQ ID NO: 5 and VH of SEQ ID NO: 1) were used as a control.
(§1) Using a standard ELISA protocol, human CD147 protein was absorbed to ELISA plates and subsequently incubated with the indicated concentration of antibody of the present disclosure. Bound humanized activatable antibody of the present disclosure was detected with anti-human Fab-peroxidase secondary antibody and Ultra TMB detection (Thermo Fisher Scientific).

[2] = biological target: T1, human CD147 protein (adsorbed to ELISA …); assay: as above; remark: listed apart in the source
Description: as §1, with “For the exemplary assay depicted in FIGS. 7A-7C,” for “Using a”, “protocol was used, in which” for “protocol,”

[3] = biological target: T1, human CD147 protein (adsorbed to ELISA …); assay: ELISA, human CD147 protein adsorbed to plate, anti-human Fab-peroxidase detection; apparent KD
Description: The antibodies of the present disclosure that were assayed in this exemplary study were hu 3A11 Lc1/hu 3A11 Hc1 (VL of SEQ ID NO: 5 and VH of SEQ ID NO: 1), hu 3A11 Lc2/hu 3A11 Hc2 (VL of SEQ ID NO: 6 and VH of SEQ ID NO: 2), hu 3A11 Lc4/hu 3A11 Hc2 (VL of SEQ ID NO: 8 and VH of SEQ ID NO: 2). Using a standard ELISA protocol, human CD147 protein was absorbed to ELISA plates and subsequently incubated with the indicated concentration of antibody of the present disclosure. Bound humanized antibody of the present disclosure was detected with anti-human Fab-peroxidase secondary antibody, and Ultra TMB detection (Thermo Fisher Scientific).

[4] = biological target: T2, recombinant human CD147-Fc chimeric protein deglycosylated with Enzymatic Protein Deglycosylation Kit … (human, UniProt P35613-2 25-205, N- and simple O-linked carbohydrates removed enzymatically (Sigma-Aldrich EDEGLY kit, about 1.5 days at 37 C)); assay: ELISA, deglycosylated CD147-Fc adsorbed at 1 ug/mL, anti-human Fab-peroxidase detection; apparent KD
T2 construct: Same bought protein as m9 after deglycosylation (migrates at 52 and 48 kDa); also called CD147-Fc (deglyc-Sigma); Fc part of the bought chimera not given
T2 sequence (looked up): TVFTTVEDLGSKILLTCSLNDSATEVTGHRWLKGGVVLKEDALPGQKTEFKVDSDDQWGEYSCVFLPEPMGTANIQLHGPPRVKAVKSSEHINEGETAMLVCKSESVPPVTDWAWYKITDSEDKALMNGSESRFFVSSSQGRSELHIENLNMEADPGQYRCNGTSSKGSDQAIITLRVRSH
Description: (§2) In this example, recombinant human CD147-Fc chimeric protein (R&D Systems, cat. no. 927-EMN-050) was deglycosylated of N- and simple O-linked carbohydrates using the Protein Deglycosylation Mix II (˜16 hrs incubation at 37° C.; New England Biolabs, cat. no. P6044S) or the Enzymatic Protein Deglycosylation Kit (˜1.5 days+incubation at 37° C.; Sigma-Aldrich, cat. no. EDEGLY) in accordance with their respective protocols. […] Bovine fetuin, which includes both N- and O-linked carbohydrates, was used a control for the extent of deglycosylation.
(§3) After buffer exchange with PBS, the deglycosylated or glycosylated proteins were adsorbed onto ELISA plates at 1 μg/mL. […] Bound humanized antibody of the present disclosure was detected with anti-human Fab-peroxidase secondary antibody and the mouse 3A11 monoclonal antibody was detected with anti-mouse Fc-peroxidase secondary antibody, and Ultra TMB detection (Thermo Fisher Scientific).

[5] = biological target: T3, recombinant human CD147-Fc chimeric protein deglycosylated with Protein Deglycosylation Mix II (New England … (human, UniProt P35613-2 25-205, N- and simple O-linked carbohydrates removed enzymatically (NEB Protein Deglycosylation Mix II, about 16 hrs at 37 C))); assay: as above
T3 construct: Same bought protein as m9 after deglycosylation (migrates at 52 and 48 kDa); also called CD147-Fc (deglyc-NEB); Fc part of the bought chimera not given
T3 sequence (looked up): T2 sequence (looked up)
Description: as §2, §3

[6] = biological target: T4, recombinant human CD147-Fc chimeric protein (glycosylated) (human, UniProt P35613-2 25-205, glycosylated as supplied (migrates at about 62 kDa)); assay: ELISA, CD147-Fc adsorbed at 1 ug/mL, anti-human Fab-peroxidase detection; apparent KD
T4 construct: Bought protein; also called CD147-Fc (glycosylated); R&D Systems cat. no; 927-EMN-050; Fc part of the bought chimera not given
T4 sequence (looked up): T2 sequence (looked up)
Description: as §3

[7] = biological target: T1, human CD147 protein (adsorbed to ELISA …); assay: ELISA, human CD147 protein adsorbed to plate, anti-human Fab-peroxidase detection; apparent KD; remark: listed apart in the source
Description: as §1, with “For the exemplary assay depicted in FIGS. 7A-7C,” for “Using a”, “protocol was used, in which” for “protocol,”

[8] = biological target: T1, human CD147 protein (adsorbed to ELISA …); assay: as above; remark: listed apart in the source
Description: (§4) The antibody of the present disclosure that was assayed in this exemplary study was hu 3A11 Lc1/Hc1 (VL of SEQ ID NO: 5 and VH of SEQ ID NO: 1). Mouse anti-human CD147 monoclonal antibody 3A11 (VL of SEQ ID NO: 8 and VH of SEQ ID NO: 4) was assayed as a reference. Using a standard ELISA protocol, human CD147 protein was absorbed to ELISA plates and subsequently incubated with the indicated concentration of antibody of the present disclosure. Bound humanized antibody of the present disclosure was detected with anti-human Fab-peroxidase secondary antibody and the mouse 3A11 monoclonal antibody was detected with anti-mouse Fc-peroxidase secondary antibody, and Ultra TMB detection (Thermo Fisher Scientific).

[9] = biological target: T5, cynomolgus monkey CD147 on the cynomolgus primary kidney epithelial cell line (cynomolgus monkey); assay: FACS on cynomolgus primary kidney epithelial cell line, Alexa Fluor 647 goat anti-human IgG detection
T5 construct: whole, on cells; also called cynomolgus CD147
Description: In this study, the binding of the humanized anti-human CD147 antibody of the present disclosure to the indicated cell lines were performed using a standard FACS labelling method. Briefly, cells were labeled with the indicated antibodies of the present disclosure: anti-human CD147 antibody (humanized anti-human CD147 hu3A11 antibody; VH of SEQ ID NO: 1, VL of SEQ ID NO: 5) at the indicated concentrations and subsequently detected with an Alexa Fluor 647 labeled goat anti-human IgG secondary antibody.

[10] = biological target: T1, human CD147 protein (adsorbed to ELISA …); assay: ELISA, human CD147 protein adsorbed to plate, anti-human Fab-peroxidase detection; apparent KD; remark: listed apart in the source
Description: as §1

[11] = biological target: T1, human CD147 protein (adsorbed to ELISA …); assay: ELISA, human CD147 protein adsorbed to plate, anti-mouse Fc-peroxidase detection; apparent KD
Description: as §4

B1: anti-human CD147 activatable antibody hu 3A11 Hc1/Lc1-414-3001 (antibody)
VH: EVQLVESGGGLVQPGGSLRLSCAASGFTFSNYWMDWVRQAPGKGLEWVGEIRLKSYNYATHYAASVKGRFTISRDDSKNSVYLQMNSLKTEDTAVYYCTAAGTDYWGQGTLVTVSS
VL: THGPCHFKPNCSYPTGGGSSGGSAVGLLAPPGGLSGRSDNHGGSDIQMTQSPSSLSASVGDRVTITCRASQSVRTDVGWYQQKPGKAPKLLIYYSSNRYTGVPSRFSGSGSGTDFTLTISSLQPEDFATYYCQQDYSSPYTFGQGTKLEIK
notes: also called hu 3A11-414-3001
B1 gave a Kd [1] of 16 nM and a Kd [2] of 24.7 nM.

B2: humanized anti-human CD147 antibody hu 3A11 Lc2/hu 3A11 Hc2 (antibody, V domains shown)
VH: B1 VH with D35N, V81L, T99A, A100R
VL: DIQMTQSPSSLSASVGDRVTITCKASQSVRTDVAWYQQKPGKAPKLLIYYSSNRYTGVPSRFSGSGSGTDFTLTISSLQPEDFATYYCQQDYSSPFTFGQGTKLEIK
notes: also called hu 3A11 (hu Lc2/hu Hc2)
For B2, the Kd [3] was 0.726 nM.

B3: anti-human CD147 activatable antibody hu 3A11 Hc1/Lc1-415.1-2012 (antibody, V domains shown)
VH: B1 VH
VL: LHGPCHFNNCNTLGGGSSGGSISSGLLSGRSANPGGGSDIQMTQSPSSLSASVGDRVTITCRASQSVRTDVGWYQQKPGKAPKLLIYYSSNRYTGVPSRFSGSGSGTDFTLTISSLQPEDFATYYCQQDYSSPYTFGQGTKLEIK
notes: also called hu 3A11-415.1-2012
For B3, the Kd [2] was 4.68 nM.

B4: anti-human CD147 activatable antibody hu 3A11 Hc1/Lc1-419.3-3001 (antibody, V domains shown)
VH: B1 VH
VL: LHGPCHYDLKCKGGGSSGGSAVGLLAPPGGLSGRSDNHGGSDIQMTQSPSSLSASVGDRVTITCRASQSVRTDVGWYQQKPGKAPKLLIYYSSNRYTGVPSRFSGSGSGTDFTLTISSLQPEDFATYYCQQDYSSPYTFGQGTKLEIK
notes: also called hu 3A11-419.3-3001
For B4, the Kd [2] was 73.5 nM.

B5: anti-human CD147 activatable antibody hu 3A11 Hc1/Lc1-419.2-3001 (antibody, V domains shown)
VH: B1 VH
VL: LHGPCHYDLKCKNNGGGSSGGSAVGLLAPPGGLSGRSDNHGGSDIQMTQSPSSLSASVGDRVTITCRASQSVRTDVGWYQQKPGKAPKLLIYYSSNRYTGVPSRFSGSGSGTDFTLTISSLQPEDFATYYCQQDYSSPYTFGQGTKLEIK
notes: also called hu 3A11-419.2-3001
For B5, the Kd [2] was 20.8 nM.

B6: anti-human CD147 activatable antibody hu 3A11 Hc1/Lc1-419.3-2012 (antibody, V domains shown)
VH: B1 VH
VL: LHGPCHYDLKCKGGGSSGGSISSGLLSGRSANPGGGSDIQMTQSPSSLSASVGDRVTITCRASQSVRTDVGWYQQKPGKAPKLLIYYSSNRYTGVPSRFSGSGSGTDFTLTISSLQPEDFATYYCQQDYSSPYTFGQGTKLEIK
notes: also called hu 3A11-419.3-2012
With B6 the Kd [2] was 10 nM.

B7: anti-human CD147 activatable antibody hu 3A11 Hc1/Lc1-414.3-2012 (antibody, V domains shown)
VH: B1 VH
VL: THGPCHFKPNCAYPTGGGSSGGSISSGLLSGRSANPGGGSDIQMTQSPSSLSASVGDRVTITCRASQSVRTDVGWYQQKPGKAPKLLIYYSSNRYTGVPSRFSGSGSGTDFTLTISSLQPEDFATYYCQQDYSSPYTFGQGTKLEIK
notes: also called hu 3A11-414.3-2012
With B7 the Kd [2] was 5.92 nM.

B8: humanized anti-human CD147 antibody hu 3A11 Lc4/hu 3A11 Hc2 (antibody, V domains shown)
VH: B1 VH with D35N, V81L, T99A, A100R
VL: B2 VL with A13V, S67Y, L73F, L78V
notes: also called hu 3A11 (hu Lc4/hu Hc2)
Work on B8 yielded a Kd [3] of 0.902 nM.

B9: anti-human CD147 activatable antibody hu 3A11 Hc1/Lc1-415-2012 (antibody, V domains shown)
VH: B1 VH
VL: B7 VL with T1L, K8N, P9N, N10C, C11N, A12T, Y13L, P14K, T15L
notes: also called hu 3A11-415-2012
B9 was tested, and the Kd [2] was 1.43 nM.

B10: anti-human CD147 activatable antibody hu 3A11 Hc1/Lc1-414.4-2012 (antibody, V domains shown)
VH: B1 VH
VL: B7 VL with K8R
notes: also called hu 3A11-414.4-2012
Binder B10 has a Kd [2] of 6.73 nM.

B11: humanized anti-human CD147 monoclonal antibody hu 3A11 Lc1/Hc1 (antibody, V domains shown)
VH: B1 VH
VL: B2 VL with K24R, A34G, F96Y
notes: Detected with anti-human Fab or anti-human IgG secondary antibodies; also called hu 3A11 (hu Lc1/hu Hc1); hu 3A11 (hu Hc1/Lc1)
For B11, the Kd [4] was 0.175 nM, the Kd [5] was 0.185 nM and the Kd [6] was 0.191 nM. The Kd [7] was 0.45 nM and 0.59 nM, the Kd [8] was 0.71 nM and the Kd [3] was 0.852 nM. For the same binder, the Kd [9] was 1.3 nM and the Kd [10] was 0.14 nM.

B12: mouse anti-human CD147 monoclonal antibody 3A11 (antibody, V domains shown)
VH: EVKLEESGGGLVQPGGSMKLSCVASGFTFSNYWMNWVRQSPEKGLEWVGEIRLKSYNYATHYVESVEGRFTISRDDSKSSVYLQMNNLRAEDTGIYYCTAAGTDYWGQGTTLTVSS
VL: SIVMTQIPKILLVSAGDRVTITCKASQSVRTDVAWYQQKPGQSPKLLIYYSSNRYTGVPDRFTGSGYGTDFTFTISTVQAEDLAVYFCQQDYSSPFTFGSGTKLEIK
notes: Mouse hybridoma antibody, detected with anti-mouse Fc secondary antibody; also called Mouse 3A11; mu 3A11
B12 gave a Kd [11] of 0.293 nM.
